These results are taken from article doi:10.1101/2024.11.26.625467.

This assay concerns the target CA09 N1 sNAp (stabilized NA protein, neuraminidase head of H1N1 A/California/07/2009) (influenza A virus H1N1 A/California/07/2009). Kind of assay: cryo-EM structure.

Turning to “CA09 N1 sNAp (stabilized NA protein, neuraminidase head of H1N1 A/California/07/2009) (domain or fragment)”, the stoichiometry N – broadly, a count of units in the complex or per binding partner – amounted to 4.
